Where two headings read alike, the source gives them in different places.
Tests used:
cyno MerTK-his protein [1] = target: T1, cyno MerTK-his protein (cynomolgus, UniProt A0A2K5V1H9 27-505); assay: ELISA, plate coated with cyno MerTK-his, anti-human IgG Fc-HRP, OD 450nm
T1 construct: also called cyno MerTK protein; Cynomolgus
T1 sequence: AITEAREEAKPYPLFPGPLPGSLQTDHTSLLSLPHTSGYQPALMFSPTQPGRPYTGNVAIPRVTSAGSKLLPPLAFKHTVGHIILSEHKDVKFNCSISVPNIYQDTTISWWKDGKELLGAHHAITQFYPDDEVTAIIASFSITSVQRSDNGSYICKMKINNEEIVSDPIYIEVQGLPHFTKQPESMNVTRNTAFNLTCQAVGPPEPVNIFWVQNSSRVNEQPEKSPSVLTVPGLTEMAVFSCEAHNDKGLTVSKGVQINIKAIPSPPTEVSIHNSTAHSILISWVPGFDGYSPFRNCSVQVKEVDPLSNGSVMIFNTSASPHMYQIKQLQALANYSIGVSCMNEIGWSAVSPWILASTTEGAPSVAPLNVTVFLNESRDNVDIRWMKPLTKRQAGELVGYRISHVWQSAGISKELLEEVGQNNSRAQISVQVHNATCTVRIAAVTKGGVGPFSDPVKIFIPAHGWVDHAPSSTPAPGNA

cyno MerTK-his protein [2] = target: T1, cyno MerTK-his protein; assay: as above; remark: listed apart in the source
[3] = target: T2, human MerTK expressed on cells (human, UniProt Q12866 21-999); assay: FACS on CHO-K1 cells overexpressing human MerTK, MFI (PE)
T2 construct: whole, on cells; also called CHO-K1-hMerTK; CHO-K1-MerTK
T2 sequence (looked up): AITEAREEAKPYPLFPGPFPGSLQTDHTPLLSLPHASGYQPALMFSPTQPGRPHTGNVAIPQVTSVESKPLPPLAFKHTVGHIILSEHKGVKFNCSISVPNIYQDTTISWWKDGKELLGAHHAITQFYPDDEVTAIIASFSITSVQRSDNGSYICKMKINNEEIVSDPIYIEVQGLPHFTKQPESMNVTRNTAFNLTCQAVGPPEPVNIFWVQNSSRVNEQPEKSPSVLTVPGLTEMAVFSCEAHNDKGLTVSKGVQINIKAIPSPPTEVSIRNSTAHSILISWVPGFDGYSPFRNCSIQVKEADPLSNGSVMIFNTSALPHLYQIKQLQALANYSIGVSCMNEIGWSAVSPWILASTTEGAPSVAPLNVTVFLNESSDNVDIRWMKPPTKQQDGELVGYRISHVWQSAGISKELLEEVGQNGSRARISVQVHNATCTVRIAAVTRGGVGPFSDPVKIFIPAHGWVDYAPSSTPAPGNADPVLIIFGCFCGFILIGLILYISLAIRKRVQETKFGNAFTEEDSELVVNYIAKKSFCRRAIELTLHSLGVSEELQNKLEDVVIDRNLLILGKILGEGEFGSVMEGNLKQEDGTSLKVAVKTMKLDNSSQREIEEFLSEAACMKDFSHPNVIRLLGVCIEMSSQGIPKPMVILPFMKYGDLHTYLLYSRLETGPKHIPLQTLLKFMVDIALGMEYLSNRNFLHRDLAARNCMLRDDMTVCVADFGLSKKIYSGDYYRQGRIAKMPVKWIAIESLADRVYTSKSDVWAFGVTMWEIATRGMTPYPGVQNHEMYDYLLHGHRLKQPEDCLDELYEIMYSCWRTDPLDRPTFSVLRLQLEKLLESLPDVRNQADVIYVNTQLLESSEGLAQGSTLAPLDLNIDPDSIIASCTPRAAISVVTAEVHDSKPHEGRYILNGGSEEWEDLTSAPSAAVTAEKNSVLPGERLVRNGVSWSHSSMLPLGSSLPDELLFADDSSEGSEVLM
Protocol: To evaluate the binding property to the antigen expressed on the cells, the chimeric monoclonal antibodies were analyzed for their binding to human MerTK overexpressed on CHO-K1 cells by FACS. Briefly, human MerTK overexpressing CHO-K1 (CHO-K1-MerTK) cells were firstly incubated with 5-fold serially diluted mAbs starting at 20 nM at 4° C. for 1 hour. After washing with FACS buffer, the PE conjugated anti-human IgG-Fc secondary antibody was added to each well and incubated at 4° C., for 30 mins. The mean fluorescence intensity (MFI) of PE were evaluated by QuantAnalyzer 16.
To evaluate the binding property to the antigen expressed on the cells, the humanized antibodies were analyzed by FACS as described before.

[4] = target: T2, human MerTK expressed on cells; assay: FACS on CHO-K1 cells overexpressing human MerTK, MFI (AF488)
[5] = target: T2, human MerTK expressed on cells; assay: as above; remark: listed apart in the source

B1: h13B4.v16 benchmark antibody (antibody, V domains shown)
VH: EVQLVESGEGLVQPGGSLRLSCAASGFSLSSYAMGWVRQAPGKGLEYVGIINSYGNTYYANWAKGRFTISRDNSKNTVYLQMGSLRAEDMAVYYCARDPGVSSNLWGRGTLVTVSS
VL: DIQMTQSPSTLSASVGDRVTITCQASQNIYSGLAWYQQKPGKAPKLLIYGASKLASGVPSRFSGSGSGTEFTLTISSLQPDDFATYYCQATYYSSNSVAFGGGTKVEIK
Work on B1 yielded an EC50 (cyno MerTK-his protein [1]) of 44 pM and an EC50 (cyno MerTK-his protein [2]) of 27 pM.

B2: 10F7D9 chimeric monoclonal antibody (antibody, V domains shown)
VH: QIQLVQSGPELKKPGETVKISCKASGYTFTNYGMNWVKQAPGKGLKWMGWINTYTGEPTYADDFKGRFAFSLETSASTAYLQINNLKNEDLATYFCATYGHYAWFAYWGQGTLVTVSA
VL: QIVLSQSPAILSASPGEKVTMTCRASSSVSYMHWYQQKSGSSPKPWIYATSNLASGVPARFSGSGSGTSYSLTISRVEAEDAATYFCQQWGTKPLTFGAGTKLELK
For B2, the EC50 [3] was 230 pM.

B3: 265F11B5 chimeric monoclonal antibody (antibody, V domains shown)
VH: QVQLQQSGPELVKPGASVRLSCKASGYTFTTYDINWVKQRPGLGLEWIGWIYPRDGYTKYNEKFKGRATLAVDTSSSTAYMELHSLTSEDSAVYFCTRGYYDNLYYFDYWGQGTTLTVSS
VL: EIVLTQSPTTVAASPGEKITITCSASSIISSNYFHWYQQRPGFSPKLLIYRTSNLASGVPARFSGSGSGTSYSLTIGTMEAEDVATYYCQQGRSVPLTFGAGTKLELK
B3 was tested, and the EC50 [4] was 230 pM.

B4: 254B4D9 chimeric monoclonal antibody (antibody, V domains shown)
VH: QIQLVQSGPELKKPGETVKISCKASGYTFTAYGMSWVKQAPGKGLQWMGWINTYSGVPTYTDDFKGRFAFSLEASASTAFLQINNLKNEDTSTYFCARRAAVVAKYWYFDVWGTGTTVTVSS
VL: DIQMTQSPSSLFASLGGKVIITCKSSQDINKRISWYQHKPGKGPRLLIHSTSSLQPGIPLRFSGSGSGRDYSFSISNLEPEDIATYFCLQYDNLLTFGAGTKLELK
Work on B4 yielded an EC50 [5] of 1000 pM.
